The values below come from publication PMC3589475, “Large-Scale Functional Purification of Recombinant HIV-1 Capsid” (PLoS ONE, 2013).

pKd: −log10 of the molar value.

Assay [1] deals with quadruple mutant (A14C/E45C/W184A/M185A) CA monomer (CA 4Mu) (HIV-1 (NL4-3 strain)). As to the kind of experiment: AUC; sedimentation velocity, cross-linked CA 4Mu hexamer at 4.13, 8.25 and 16.5 µM (as monomers), 50 mM sodium phosphate pH 7.5, 25°C, 45,000 rpm, no reducing agent.
For assay [2], the target named is wild-type HIV-1 capsid protein (WT CA) (HIV-1 (pLAI.2)) (UniProt P03348). The experiment in a line: AUC; sedimentation velocity, WT CA at 0.94, 1.88, 3.75 and 7.5 µM, 50 mM sodium phosphate pH 7.5, 25°C, 45,000 rpm; monomer to dimer, at high protein concentration.
Assay [3] addresses HIV-1 capsid (CA) (Human immunodeficiency virus 1) (UniProt O93182). The following applies: cited from earlier work.

“quadruple mutant (A14C/E45C/W184A/M185A) CA monomer (CA 4Mu) (natural protein)”: in assay [1], the percent in hexameric form came out at 94% and the stoichiometry N (commonly a count of units in the complex or per binding partner) is 6. Turning to “wild-type HIV-1 capsid protein (WT CA) (from UniProt P03348 133-363) (natural protein)”, the stoichiometry N in assay [2] worked out at 2. With HIV-1 capsid (CA) (from UniProt O93182), the pKd (as a rule, the Kd on a negative log10 scale, so that one unit is a factor of ten) in assay [3] is 4.85.
